The text below walks through data of publication PMC11066147.

Holding throughout (assay): SPR
For assay [1], the target named is PfHsp70-1LS (linker switch mutant of PfHsp70-1 carrying the linker of PfHsp70-z) (Plasmodium falciparum) (UniProt Q8IB24).
Assay [2] has as its target PfHsp70-zLS (linker switch mutant of PfHsp70-z carrying the linker of canonical Hsp70) (Plasmodium falciparum) (UniProt Q8IC01).
For assay [3], the target named is PfHsp70-1LS (linker switch mutant of PfHsp70-1 carrying the linker of PfHsp70-z) (Plasmodium falciparum) (UniProt Q8IB24). This is another data set of the same source.
Assay [4] has as its target DnaKLS (linker switch mutant of DnaK harbouring the PfHsp70-z linker) (E. coli) (UniProt P0A6Y8).
Assay [5] concerns the target PfHsp70-zLS (linker switch mutant of PfHsp70-z carrying the linker of canonical Hsp70) (Plasmodium falciparum) (UniProt Q8IC01). This is another data set of the same source.
Assay [6] deals with DnaKLS (linker switch mutant of DnaK harbouring the PfHsp70-z linker) (E. coli) (UniProt P0A6Y8). This is another data set of the same source.

By Kd is commonly meant a measure of binding affinity in units of concentration. Lower therefore signals tighter binding. One may read the koff as the first-order rate constant of dissociation. A lower koff goes with a long-lived complex. As a reminder, the kon is a measure of how fast the partners come together.

Values joined by “and” are separate entries in the source; they are usually repeats but may differ in a detail not shown here. Equal values may be shown once. Read-outs that look alike come from different tables or passages of the source.

Regarding “PfHsp70-1LS (linker switch mutant of PfHsp70-1 carrying the linker of PfHsp70-z) (from UniProt Q8IB24 1-677) (natural protein)”, in assay [1], the Kd was 42400 nM and 17200 nM and 59000 nM; the koff was 0.0447 s⁻¹ and 0.0633 s⁻¹ and 0.0666 s⁻¹.

Take ALLLMYRR (peptide): the Kd was 41.6 nM in assay [2]; 99.3 nM in assay [3]; 2440 nM in assay [4]; 36.5 nM in assay [5]; 89.4 nM in assay [1]; 1950 nM in assay [6].

On to “DnaKLS (linker switch mutant of DnaK harbouring the PfHsp70-z linker) (from UniProt P0A6Y8 1-638) (natural protein)”, for which, in assay [6], the koff is 0.0714 s⁻¹ and 0.0903 s⁻¹ and 0.0492 s⁻¹.

Regarding ANNNMYRR (peptide), the Kd was 3.3 nM in assay [2]; 977 nM in assay [3]; 1690 nM in assay [4]; 778 nM in assay [1]; 1770 nM in assay [6].

As for “E. coli Hsp70 (DnaK) (from UniProt P0A6Y8 1-638) (natural protein)”, the kon in assay [6] was 45700 M⁻¹ s⁻¹ and 73200 M⁻¹ s⁻¹ and 63200 M⁻¹ s⁻¹.

For “Plasmodium falciparum heat shock protein 70-1 (PfHsp70-1) (from UniProt Q8IB24 1-677) (natural protein)”, in assay [1], the Kd is 4700 nM and 3370 nM and 998 nM; the koff is 0.0935 s⁻¹ and 0.0539 s⁻¹ and 0.0392 s⁻¹; the kon is 19900 M⁻¹ s⁻¹ and 16000 M⁻¹ s⁻¹ and 39500 M⁻¹ s⁻¹.

Take NRNNTG (peptide): the Kd turned out to be 25.6 nM in assay [2]; 466 nM in assay [3]; 855 nM in assay [4]; 59.5 nM in assay [5]; 132 nM in assay [1]; 716 nM in assay [6].

With NRLLTG (peptide), the Kd in assay [2] was found to be 21.1 nM; in assay [3], 174 nM; in assay [4], 962 nM; in assay [5], 20.7 nM; in assay [1], 682 nM; in assay [6], 891 nM.
